Target: T1, non-phosphorylated Tau (Tau-441 (2N4R), rPeptide LLC) (human, UniProt P10636 1-758)
T1 construct: also called non-phosphorylated Tau protein (2N4R); recombinant Tau
Assay: sandwich ELISA: antigen captured by coated anti-Tau antibody BT2, detected with the peroxidase-labelled antibody at 80 ng/mL; antigen concentration varied
Protocol: Anti-Tau monoclonal antibody BT2 (Thermo Fisher Scientific) was adjusted with 50 mM Tris/HCl (pH 7.5) to a concentration of 1 microgram/mL, and then injected at 100 microliter/well in a Maxisorp cup (NUNC). The cup was placed in a humid box and coated overnight at 4 degrees Celsius. After the antibody solution was removed by aspiration, a blocking solution (5% skimmed milk (FUJIFILM Wako Pure Chemical), 50 mM Tris/HCl (pH 7.5), 150 mM NaCl, 0.1% sodium azide) was injected at 200 microliter/well, followed by blocking at room temperature for 2 hours or at 4 degrees Celsius for one day or more (hereinafter referred to as “BT2 cup”). The test recombinant antibodies: 5F6-4D1, 7G5-4B8, 2H8-1G7, 2H8-1G7(KC14S) and comparator antibodies: PT3 and anti-pT217 Tau polyclonal antibody (Genscript poly; Cat. No. A00896, Genscript) were labeled with peroxidase using a Peroxidase Labeling Kit-NH2 (DOJINDO MOLECULAR TECHNOLOGIES) in accordance with the instruction manual attached to the kit (hereinafter referred to as “peroxidase-labeled pT217 Tau antibodies”). […]

T1 sequence (P10636 other isoform, or with tags, fused parts or gaps limits assumed): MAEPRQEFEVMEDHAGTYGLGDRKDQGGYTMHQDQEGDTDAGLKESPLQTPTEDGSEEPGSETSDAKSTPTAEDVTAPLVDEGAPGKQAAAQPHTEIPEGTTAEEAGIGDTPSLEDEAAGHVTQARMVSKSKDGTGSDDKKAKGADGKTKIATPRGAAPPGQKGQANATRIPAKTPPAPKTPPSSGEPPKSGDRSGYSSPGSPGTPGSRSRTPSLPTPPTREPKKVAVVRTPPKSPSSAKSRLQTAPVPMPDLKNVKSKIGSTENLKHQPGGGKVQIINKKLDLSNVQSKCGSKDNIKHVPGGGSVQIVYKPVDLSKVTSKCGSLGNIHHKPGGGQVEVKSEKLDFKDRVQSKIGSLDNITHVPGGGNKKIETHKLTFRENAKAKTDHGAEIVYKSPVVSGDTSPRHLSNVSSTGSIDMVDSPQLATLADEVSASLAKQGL

B1: 2H8-1G7(KC14S) (antibody, mouse IgG2b, kappa, V domains shown)
VH: EVQLVESGGGLVKPGGSLKLSCAASGFTVSDYGMHWVRQAPEKGLEWIAYISSGSSTIYYVDTVKGRFTISRDNAKNTLFLQMTSLRSEDTAMYYCARRLSIWGTGTTVTVSS
VL: QIVLTQSPAIMSASPGEKVTMTCSASSSVSSMYWYHQKPGSSPRLLIYDTSNLASGVPVRFSGSGSGTSYSLTISRMEAEDAATYYCLQWSSYPLTFGAGTKLELKR
notes: Recombinant mouse IgG2b kappa
Does B1 bind?
Result: no binding (tested: 80000 pg/mL)
